Results taken from US20050282743A1, “Molecular interactions in cells” (Arbor Vita Corporation, priority 2001, published 2005).
Ends that are not written are not given here. Peptide text beside a SMILES is read from it. * marks the point of attachment. Biotin = O=C1N[C@H]2[C@H](CS[C@H]2CCCCC(=O)*)N1

Experiments:
Format in all cases: binding
[1] = biological target: T1, PDZ protein (GST-PDZ fusion) (Homo sapiens, UniProt Q8TEW0); assay: G' assay (10 uM PL peptide), results of TABLE 7 and TABLE 12; conditions: PDZ PAR3, PDZ Domain 3
T1 construct: made in house; host or cells: E. coli (DH5alpha, BL21 or JM109)
In short: (§1)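 Same steps as the G-zero format, apart from a peptide concentration of 10 uM in place of 20 uM in step 2. Amino-terminally biotinylated PL peptides bind GST-PDZ fusions, and retained peptide is quantified by 450 nm absorbance.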

[2] = biological target: T2, PDZ protein (GST-PDZ fusion) (Homo sapiens, UniProt Q9Y2H9); assay: as above; conditions: PDZ KIAA0973, PDZ Domain 1
T2 construct: made in house; host or cells: E. coli (DH5alpha, BL21 or JM109)
In short: as §1

[3] = biological target: T3, PDZ protein (GST-PDZ fusion) (Homo sapiens, UniProt Q9C0E4); assay: as above
T3 construct: made in house; host or cells: E. coli (DH5alpha, BL21 or JM109)
In short: as §1

[4] = biological target: T4, PDZ protein (GST-PDZ fusion) (Homo sapiens, UniProt Q13424); assay: as above; conditions: PDZ Synt. 1 alpha, PDZ Domain 1
T4 construct: made in house; host or cells: E. coli (DH5alpha, BL21 or JM109)
T4 sequence (Q13424 1-505): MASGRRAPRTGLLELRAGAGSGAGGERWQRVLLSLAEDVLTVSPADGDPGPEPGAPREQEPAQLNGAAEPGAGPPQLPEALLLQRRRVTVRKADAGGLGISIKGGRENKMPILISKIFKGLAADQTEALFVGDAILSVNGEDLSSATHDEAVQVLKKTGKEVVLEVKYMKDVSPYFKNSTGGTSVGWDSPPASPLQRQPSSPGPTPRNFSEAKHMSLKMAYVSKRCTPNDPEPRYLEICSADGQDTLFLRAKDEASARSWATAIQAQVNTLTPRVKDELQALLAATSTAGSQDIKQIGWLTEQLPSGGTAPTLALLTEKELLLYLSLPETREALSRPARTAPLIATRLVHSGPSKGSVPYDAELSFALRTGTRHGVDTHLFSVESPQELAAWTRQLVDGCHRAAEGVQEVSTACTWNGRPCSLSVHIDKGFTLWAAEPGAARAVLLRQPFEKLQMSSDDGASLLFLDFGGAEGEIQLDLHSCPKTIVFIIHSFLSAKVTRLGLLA
In short: as §1

[5] = biological target: T5, PDZ protein (GST-PDZ fusion) (Homo sapiens, UniProt Q9NSN8); assay: as above; conditions: PDZ Syntrophin gamma-1, PDZ Domain 1
T5 construct: made in house; host or cells: E. coli (DH5alpha, BL21 or JM109)
T5 sequence (Q9NSN8 1-517): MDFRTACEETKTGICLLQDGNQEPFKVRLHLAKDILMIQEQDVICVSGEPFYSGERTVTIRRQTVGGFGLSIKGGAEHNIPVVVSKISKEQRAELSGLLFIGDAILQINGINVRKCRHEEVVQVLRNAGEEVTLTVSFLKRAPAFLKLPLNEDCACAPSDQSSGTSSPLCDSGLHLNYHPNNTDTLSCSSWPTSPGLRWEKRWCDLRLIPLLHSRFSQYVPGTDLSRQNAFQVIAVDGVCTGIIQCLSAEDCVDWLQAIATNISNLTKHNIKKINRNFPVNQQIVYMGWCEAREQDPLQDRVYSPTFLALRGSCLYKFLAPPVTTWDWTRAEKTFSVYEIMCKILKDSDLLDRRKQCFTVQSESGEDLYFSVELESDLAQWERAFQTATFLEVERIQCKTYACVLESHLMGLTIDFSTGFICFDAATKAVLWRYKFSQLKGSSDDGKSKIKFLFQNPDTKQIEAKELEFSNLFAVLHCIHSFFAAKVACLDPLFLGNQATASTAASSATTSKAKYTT
In short: as §1

[6] = biological target: T6, KIAA0807(S) (PDZ Domain 1) (Homo sapiens, UniProt Q6P0Q8); assay: G' assay and Kd titration, TABLE 12; conditions: A450 nm class of biotinylated PL peptide bound; 0 in conc columns = peptide 10 uM, protein 5 ug/ml
T6 construct: made in house; host or cells: E. coli (DH5alpha, BL21 or JM109)
T6 sequence (Q6P0Q8 with tags, fused parts or gaps): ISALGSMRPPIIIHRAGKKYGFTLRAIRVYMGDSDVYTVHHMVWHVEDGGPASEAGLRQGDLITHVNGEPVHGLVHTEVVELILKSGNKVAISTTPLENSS
Method: The third column labeled “Peptide Optimal Concentration” in the tables is a number reflective of the binding interaction between the PL protein and PDZ protein. […] The column labeled “Protein Optimal Concentration” refers to the protein concentration used to assay PL interaction (in ug/ml); a ‘0’ is indicative of 5 ug/ml protein concentration; any other value represents the concentration (in ug/ml) used to determine the dissociation constant for a given interaction.
Finally, the seventh column labeled “Classification” is another measure of the level of binding. In particular, it provides an absorbance value at 450 nm which indicates the amount of PL peptide bound to the PDZ protein. The following numerical values have the following meanings: ‘1’—A450 nm 0-1; ‘2’—A450 nm 1-2; ‘3’—A450 nm 2-3; ‘4’—A450 nm 3-4; ‘5’—A450 nm of 4 more than 2× repeated; ‘0’—A450 nm 0, i.e., not found to interact. Thus, higher numbers indicate stronger interactions.
For convenience, the assay conditions described in this section are referred to as the “G′ assay” and the “G″ assay,” with the specific conditions described in the preceding section on G assays being referred to as the “G^0 assay.” The “G′ assay” is identical to the “G^0 assay” except at step (2) the peptide concentration is 10 uM instead of 20 uM.

T2 sequence (Q9Y2H9 whole entry, the tested form may be a part): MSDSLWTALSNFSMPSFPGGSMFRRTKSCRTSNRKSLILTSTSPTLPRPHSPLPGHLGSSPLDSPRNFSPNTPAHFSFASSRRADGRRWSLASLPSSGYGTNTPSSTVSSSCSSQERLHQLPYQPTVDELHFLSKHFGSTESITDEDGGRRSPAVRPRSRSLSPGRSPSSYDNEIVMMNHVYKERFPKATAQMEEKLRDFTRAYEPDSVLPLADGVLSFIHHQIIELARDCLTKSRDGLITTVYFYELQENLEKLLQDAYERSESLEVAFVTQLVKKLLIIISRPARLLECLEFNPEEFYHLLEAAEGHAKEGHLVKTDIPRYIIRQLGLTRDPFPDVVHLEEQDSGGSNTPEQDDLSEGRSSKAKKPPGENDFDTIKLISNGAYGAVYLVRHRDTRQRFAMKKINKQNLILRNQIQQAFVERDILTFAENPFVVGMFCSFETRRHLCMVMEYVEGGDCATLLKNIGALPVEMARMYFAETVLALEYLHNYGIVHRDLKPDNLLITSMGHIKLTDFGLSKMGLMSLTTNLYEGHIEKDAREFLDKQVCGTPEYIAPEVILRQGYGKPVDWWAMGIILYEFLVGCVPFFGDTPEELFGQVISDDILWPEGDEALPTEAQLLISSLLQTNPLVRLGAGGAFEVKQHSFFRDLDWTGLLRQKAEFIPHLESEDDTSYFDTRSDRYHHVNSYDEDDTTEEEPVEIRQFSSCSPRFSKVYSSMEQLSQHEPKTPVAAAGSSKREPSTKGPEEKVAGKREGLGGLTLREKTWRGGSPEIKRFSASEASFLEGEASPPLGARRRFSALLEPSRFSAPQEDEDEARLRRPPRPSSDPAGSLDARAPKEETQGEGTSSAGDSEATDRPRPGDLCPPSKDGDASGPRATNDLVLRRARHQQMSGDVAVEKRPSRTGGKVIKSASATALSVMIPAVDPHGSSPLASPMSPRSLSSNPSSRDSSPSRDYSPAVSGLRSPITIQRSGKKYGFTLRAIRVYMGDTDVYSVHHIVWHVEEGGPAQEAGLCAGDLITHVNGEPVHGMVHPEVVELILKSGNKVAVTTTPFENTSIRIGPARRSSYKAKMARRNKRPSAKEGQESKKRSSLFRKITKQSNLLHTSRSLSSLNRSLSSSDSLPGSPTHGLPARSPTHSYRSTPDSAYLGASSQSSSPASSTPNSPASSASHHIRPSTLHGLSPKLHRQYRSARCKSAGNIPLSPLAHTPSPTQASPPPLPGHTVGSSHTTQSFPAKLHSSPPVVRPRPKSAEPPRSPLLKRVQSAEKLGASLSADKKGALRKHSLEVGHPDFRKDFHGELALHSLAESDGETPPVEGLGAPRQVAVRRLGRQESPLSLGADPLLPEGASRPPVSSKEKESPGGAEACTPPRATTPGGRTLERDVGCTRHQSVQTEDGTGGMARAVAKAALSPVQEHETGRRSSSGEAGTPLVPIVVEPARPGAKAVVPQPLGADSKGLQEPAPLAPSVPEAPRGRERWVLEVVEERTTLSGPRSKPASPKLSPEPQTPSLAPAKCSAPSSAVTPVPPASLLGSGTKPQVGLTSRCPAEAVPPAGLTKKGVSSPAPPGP
T3 sequence (Q9C0E4 whole entry, the tested form may be a part): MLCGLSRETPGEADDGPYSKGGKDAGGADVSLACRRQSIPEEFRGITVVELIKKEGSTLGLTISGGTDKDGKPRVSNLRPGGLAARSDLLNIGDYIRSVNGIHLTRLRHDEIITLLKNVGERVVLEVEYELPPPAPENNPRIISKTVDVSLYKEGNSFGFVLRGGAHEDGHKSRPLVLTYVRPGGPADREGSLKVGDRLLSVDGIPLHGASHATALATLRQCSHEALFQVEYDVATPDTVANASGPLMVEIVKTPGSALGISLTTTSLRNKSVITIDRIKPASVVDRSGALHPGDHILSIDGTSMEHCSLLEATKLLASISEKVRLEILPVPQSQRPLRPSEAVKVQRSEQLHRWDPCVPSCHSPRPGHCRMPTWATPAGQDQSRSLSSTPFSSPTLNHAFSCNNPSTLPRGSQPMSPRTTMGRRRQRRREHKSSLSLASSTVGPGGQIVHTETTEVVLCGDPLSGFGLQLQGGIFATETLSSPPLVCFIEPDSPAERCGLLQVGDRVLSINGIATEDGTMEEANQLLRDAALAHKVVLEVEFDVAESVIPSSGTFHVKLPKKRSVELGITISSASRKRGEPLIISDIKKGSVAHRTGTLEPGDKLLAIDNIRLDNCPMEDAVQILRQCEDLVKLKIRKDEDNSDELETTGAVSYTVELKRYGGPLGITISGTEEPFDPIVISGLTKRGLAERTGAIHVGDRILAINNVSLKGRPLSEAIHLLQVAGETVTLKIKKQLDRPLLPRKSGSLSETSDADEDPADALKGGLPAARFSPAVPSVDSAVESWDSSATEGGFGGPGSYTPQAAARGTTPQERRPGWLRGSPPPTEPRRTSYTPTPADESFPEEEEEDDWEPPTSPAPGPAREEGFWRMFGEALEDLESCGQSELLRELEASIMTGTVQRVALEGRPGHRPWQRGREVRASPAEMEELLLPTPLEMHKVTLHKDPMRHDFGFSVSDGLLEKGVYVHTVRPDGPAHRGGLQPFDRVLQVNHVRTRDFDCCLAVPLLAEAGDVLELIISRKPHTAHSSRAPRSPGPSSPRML
T1 sequence (Q8TEW0 whole entry, the tested form may be a part): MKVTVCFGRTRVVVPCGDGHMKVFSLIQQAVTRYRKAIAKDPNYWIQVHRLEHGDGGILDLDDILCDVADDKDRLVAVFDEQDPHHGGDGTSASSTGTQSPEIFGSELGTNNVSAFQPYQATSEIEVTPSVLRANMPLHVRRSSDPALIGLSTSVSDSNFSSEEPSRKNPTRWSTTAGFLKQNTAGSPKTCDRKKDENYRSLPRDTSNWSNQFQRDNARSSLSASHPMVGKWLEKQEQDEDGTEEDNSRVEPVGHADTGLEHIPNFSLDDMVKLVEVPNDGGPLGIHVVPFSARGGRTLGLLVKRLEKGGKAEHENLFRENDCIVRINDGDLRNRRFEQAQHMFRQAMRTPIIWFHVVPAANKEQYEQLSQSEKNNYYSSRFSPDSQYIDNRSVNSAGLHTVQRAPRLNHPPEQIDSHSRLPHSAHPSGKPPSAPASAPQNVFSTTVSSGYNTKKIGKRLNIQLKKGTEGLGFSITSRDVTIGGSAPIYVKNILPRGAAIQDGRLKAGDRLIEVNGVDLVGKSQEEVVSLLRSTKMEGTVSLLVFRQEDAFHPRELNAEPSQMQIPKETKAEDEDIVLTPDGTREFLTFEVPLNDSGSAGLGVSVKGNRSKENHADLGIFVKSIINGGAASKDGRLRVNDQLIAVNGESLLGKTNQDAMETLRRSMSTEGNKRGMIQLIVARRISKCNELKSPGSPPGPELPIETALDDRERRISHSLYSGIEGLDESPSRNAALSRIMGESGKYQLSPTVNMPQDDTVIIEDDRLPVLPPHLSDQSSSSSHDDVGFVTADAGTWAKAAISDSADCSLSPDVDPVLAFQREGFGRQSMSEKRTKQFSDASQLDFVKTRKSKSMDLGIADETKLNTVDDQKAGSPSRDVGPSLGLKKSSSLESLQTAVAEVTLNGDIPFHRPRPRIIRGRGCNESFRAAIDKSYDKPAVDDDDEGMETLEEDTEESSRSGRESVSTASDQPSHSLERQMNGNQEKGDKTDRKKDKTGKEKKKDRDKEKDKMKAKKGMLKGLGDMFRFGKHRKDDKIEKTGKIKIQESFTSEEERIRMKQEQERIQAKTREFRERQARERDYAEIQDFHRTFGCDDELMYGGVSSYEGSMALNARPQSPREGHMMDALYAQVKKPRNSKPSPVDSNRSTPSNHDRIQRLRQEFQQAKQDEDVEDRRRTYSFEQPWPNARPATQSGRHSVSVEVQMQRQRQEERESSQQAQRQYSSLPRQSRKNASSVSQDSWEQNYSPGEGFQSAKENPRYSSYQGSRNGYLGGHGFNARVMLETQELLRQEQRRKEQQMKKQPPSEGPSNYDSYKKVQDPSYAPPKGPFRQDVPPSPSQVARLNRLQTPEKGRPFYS

VHDAESSDEDGYDWGPATDL (Biotin-VHDAESSDEDGYDWGPATDL) [zona occludens 3 (ZO-3)]
Classification [1]: 1 (A450 nm 0-1)
Classification [2]: 2 (A450 nm 1-2)

CC[C@H](C)[C@H](NC(=O)[C@H](C)NC(=O)[C@H](CC(C)C)NC(=O)[C@H](Cc1c[nH]c2ccccc12)NC(=O)[C@H](Cc1c[nH]cn1)NC(=O)[C@H](CCC(N)=O)NC(=O)[C@H](CC(C)C)NC(=O)[C@H](CCC(N)=O)NC(=O)[C@H](Cc1ccccc1)NC(=O)[C@H](CCC(N)=O)NC(=O)[C@H](CCCNC(=N)N)NC(=O)[C@@H](NC(=O)[C@H](CC(=O)O)NC(=O)[C@H](CCCNC(=N)N)NC(=O)[C@H](CCC(N)=O)NC(=O)[C@H](C)NC(=O)[C@@H](NC(=O)[C@H](CC(C)C)NC(=O)[C@H](Cc1c[nH]cn1)NC(=O)[C@H](Cc1c[nH]cn1)NC(=O)CCCC[C@@H]1SC[C@@H]2NC(=O)N[C@@H]21)C(C)C)[C@@H](C)CC)C(=O)O [noradrenaline transporter] (Biotin-HHLVAQRDIRQFQLQHWLAI-OH; C-terminus assumed)
Classification [1]: 4 (A450 nm 3-4)
Classification ([3]; PDZ KIAA1719, PDZ Domain 5): 2 (A450 nm 1-2)
Classification ([3]; PDZ KIAA1719, PDZ Domain 6): 2 (A450 nm 1-2)

CC[C@H](C)[C@H](NC(=O)[C@H](CO)NC(=O)[C@@H](NC(=O)[C@H](Cc1ccccc1)NC(=O)[C@H](CO)NC(=O)CCCC[C@@H]1SC[C@@H]2NC(=O)N[C@@H]21)[C@@H](C)O)C(=O)N[C@@H](CC(C)C)C(=O)N[C@H](C(=O)N[C@@H](CS)C(=O)N[C@@H](Cc1c[nH]cn1)C(=O)N[C@@H](CCC(N)=O)C(=O)N[C@@H](CCCNC(=N)N)C(=O)N[C@@H](CCCNC(=N)N)C(=O)N[C@H](C(=O)N[C@@H](CCC(N)=O)C(=O)N[C@@H](CCCNC(=N)N)C(=O)N[C@@H](CCCCN)C(=O)N[C@@H](CCC(=O)O)C(=O)N[C@H](C(=O)N[C@H](C(=O)N[C@@H](C)C(=O)O)C(C)C)[C@@H](C)O)[C@@H](C)O)[C@@H](C)O [GluR5-2 (rat)]
Classification ([3]; PDZ KIAA1719, PDZ Domain 3): 1 (A450 nm 0-1)

CC(C)C[C@H](NC(=O)[C@H](CCCNC(=N)N)NC(=O)CNC(=O)CNC(=O)[C@H](CCCNC(=N)N)NC(=O)[C@H](C)NC(=O)[C@@H]1CCCN1C(=O)[C@H](CCCNC(=N)N)NC(=O)CNC(=O)CNC(=O)[C@@H](NC(=O)[C@H](C)NC(=O)CCCC[C@@H]1SC[C@@H]2NC(=O)N[C@@H]21)C(C)C)C(=O)N[C@@H](CCC(N)=O)C(=O)NCC(=O)N[C@@H](CCCNC(=N)N)C(=O)N[C@@H](CCCNC(=N)N)C(=O)N[C@@H](CCC(N)=O)C(=O)N[C@H](C(=O)N[C@@H](CCC(N)=O)C(=O)N[C@H](C(=O)O)C(C)C)[C@@H](C)O [HPV E6 58 (modified)] (Biotin-AVGGRPARGGRLQGRRQTQV-OH; C-terminus assumed)
Classification [4]: 2 (A450 nm 1-2)
Classification [2]: 2 (A450 nm 1-2)

LNETTETQRTLLNGDLQTSI (Biotin-LNETTETQRTLLNGDLQTSI) [SSTR2 (somatostatin recepor 2)]
Classification ([3]; PDZ KIAA1719, PDZ Domain 6): 1 (A450 nm 0-1)

KTMPAATYRLLTGQEQPVYL (Biotin-KTMPAATYRLLTGQEQPVYL) [MINT-3]
Classification [1]: 1 (A450 nm 0-1)
Classification [2]: 2 (A450 nm 1-2)

CC[C@H](C)[C@H](NC(=O)[C@H](CCC(N)=O)NC(=O)[C@@H](NC(=O)[C@H](Cc1c[nH]cn1)NC(=O)[C@H](CCC(N)=O)NC(=O)[C@H](CC(=O)O)NC(=O)[C@H](CCC(=O)O)NC(=O)[C@H](CC(=O)O)NC(=O)[C@H](Cc1ccccc1)NC(=O)[C@@H]1CCCN1C(=O)[C@H](CCC(=O)O)NC(=O)[C@H](CC(N)=O)NC(=O)[C@H](CCC(=O)O)NC(=O)[C@@H]1CCCN1C(=O)[C@H](CC(=O)O)NC(=O)[C@H](CO)NC(=O)[C@H](CC(=O)O)NC(=O)CCCC[C@@H]1SC[C@@H]2NC(=O)N[C@@H]21)[C@@H](C)O)C(=O)N[C@H](C(=O)N[C@@H](CCCCN)C(=O)N[C@H](C(=O)O)C(C)C)[C@@H](C)O [PTEN]
Classification [5]: 1 (A450 nm 0-1)

KTMPAAMFRLLTGQETPLYI (Biotin-KTMPAAMFRLLTGQETPLYI) [MINT-2]
Classification [1]: 5 (A450 nm of 4 more than 2× repeated)

CC[C@H](C)[C@H](NC(=O)[C@H](CCC(N)=O)NC(=O)CCCC[C@@H]1SC[C@@H]2NC(=O)N[C@@H]21)C(=O)N[C@@H](CO)C(=O)N1CCC[C@H]1C(=O)NCC(=O)NCC(=O)N[C@@H](CC(C)C)C(=O)N[C@@H](CCC(=O)O)C(=O)N1CCC[C@H]1C(=O)N1CCC[C@H]1C(=O)N[C@@H](CO)C(=O)N[C@@H](CCC(=O)O)C(=O)N[C@@H](CCCCN)C(=O)N[C@@H](Cc1c[nH]cn1)C(=O)N[C@@H](Cc1ccccc1)C(=O)N[C@@H](CCCNC(=N)N)C(=O)N[C@@H](CCC(=O)O)C(=O)N[C@H](C(=O)N[C@@H](CCC(=O)O)C(=O)N[C@H](C(=O)O)C(C)C)[C@@H](C)O [Tax]
Classification [5]: 5 (A450 nm of 4 more than 2× repeated)
Classification [6]: 5 (A450 nm of 4 more than 2× repeated)

QATSRNGHSARQHVVADTEL (Biotin-QATSRNGHSARQHVVADTEL) [CD34]
Classification [6]: 3 (A450 nm 2-3)

A2AC_HUMAN (Modified) (Biotin-DFRPSFKHILFRRARRGFRQ; not fully specified)
Classification ([3]; PDZ KIAA1719, PDZ Domain 3): 5 (A450 nm of 4 more than 2× repeated)
Classification [2]: 3 (A450 nm 2-3)

ARHRVTSYTSSSVNVSSNL (Biotin-ARHRVTSYTSSSVNVSSNL) [IL-8RB]
Classification [4]: 1 (A450 nm 0-1)
Classification [6]: 1 (A450 nm 0-1)

PYSELNYETSHYPASPDSWV (Biotin-PYSELNYETSHYPASPDSWV) [catenin - delta 2]
Classification [1]: 1 (A450 nm 0-1)
Classification [5]: 1 (A450 nm 0-1)

ALVLIAFCIIRRRPSAYQAL (Biotin-ALVLIAFCIIRRRPSAYQAL) [CD68]
Classification ([3]; PDZ KIAA1719, PDZ Domain 3): 1 (A450 nm 0-1)
Classification ([3]; PDZ KIAA1719, PDZ Domain 6): 1 (A450 nm 0-1)
Classification [2]: 1 (A450 nm 0-1)

CKR5_HUMAN (ERASSVYTRSTGEQEISVGL)
Classification ([3]; PDZ KIAA1719, PDZ Domain 2): 1 (A450 nm 0-1)
Classification ([3]; PDZ KIAA1719, PDZ Domain 5): 1 (A450 nm 0-1)

A2AA_HUMAN (modified) (Biotin-HDFRRAFKKILARGDRKRIV; not fully specified)
Classification [1]: 2 (A450 nm 1-2)
Classification ([3]; PDZ KIAA1719, PDZ Domain 4): 3 (A450 nm 2-3)
Classification [5]: 2 (A450 nm 1-2)
